Measured values reported in article PMC4987296 (The Journal of Cell Biology, 2016).

How the values were obtained:
[1] = target: SNX27 PDZ domain in the presence of VPS26A (p.M112V) (rat | human, UniProt Q8K4V4;O75436, p.M112V); test: ITC
[2] = target: SNX27 PDZ domain in the presence of VPS26A (p.K93E) (rat | human, UniProt Q8K4V4;O75436, p.K93E); test: ITC
[3] = target: GFP-VPS26A (p.K297X) (human, UniProt O75436 1-296); test: affinity purification with mass spectrometry
Chain of GFP-VPS26A (p.K297X) (O75436 1-296): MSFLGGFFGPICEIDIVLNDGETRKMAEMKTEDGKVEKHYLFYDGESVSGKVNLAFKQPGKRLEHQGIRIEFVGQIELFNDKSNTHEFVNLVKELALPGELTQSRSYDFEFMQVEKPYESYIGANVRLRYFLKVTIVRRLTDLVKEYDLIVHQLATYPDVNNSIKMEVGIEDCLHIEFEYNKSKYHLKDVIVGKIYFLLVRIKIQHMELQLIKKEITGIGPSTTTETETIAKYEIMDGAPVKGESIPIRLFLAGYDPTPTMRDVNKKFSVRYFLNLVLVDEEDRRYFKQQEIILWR

Chain of SNX27 PDZ domain in the presence of VPS26A (p.K93E) (O75436 whole entry K93E, the tested form may be a part, one chain of several): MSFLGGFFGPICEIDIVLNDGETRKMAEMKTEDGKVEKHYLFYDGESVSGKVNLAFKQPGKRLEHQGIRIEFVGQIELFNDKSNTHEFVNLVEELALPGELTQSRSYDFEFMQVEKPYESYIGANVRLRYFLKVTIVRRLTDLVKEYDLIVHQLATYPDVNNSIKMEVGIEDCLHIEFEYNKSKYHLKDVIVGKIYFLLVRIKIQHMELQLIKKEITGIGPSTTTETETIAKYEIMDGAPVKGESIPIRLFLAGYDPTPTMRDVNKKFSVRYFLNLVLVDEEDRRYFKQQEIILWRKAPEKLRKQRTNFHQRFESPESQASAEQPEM
Chain of SNX27 PDZ domain in the presence of VPS26A (p.M112V) (O75436 whole entry M112V, the tested form may be a part, one chain of several): as the sequence (O75436 whole entry K93E, the tested form may be a part, one chain of several) above, with E93K, M112V counted along it

B1: Kir3.3 peptide (PPESESKV) (peptide)
peptide: PPESESKV
fold enhancement of binding over SNX27 PDZ domain alone [1]: > 10 fold
fold enhancement of binding over SNX27 PDZ domain alone [2]: > 10 fold

B2: DENND4C (natural protein)
chain: not shown
SILAC enrichment ratio, mutant over wild-type GFP-VPS26A [3]: 6.55

B3: PKD2 (natural protein)
chain: MVNSSRVQPQQPGDAKRPPAPRAPDPGRLMAGCAAVGASLAAPGGLCEQRGLEIEMQRIRQAAARDPPAGAAASPSPPLSSCSRQAWSRDNPGFEAEEEEEEVEGEEGGMVVEMDVEWRPGSRRSAASSAVSSVGARSRGLGGYHGAGHPSGRRRRREDQGPPCPSPVGGGDPLHRHLPLEGQPPRVAWAERLVRGLRGLWGTRLMEESSTNREKYLKSVLRELVTYLLFLIVLCILTYGMMSSNVYYYTRMMSQLFLDTPVSKTEKTNFKTLSSMEDFWKFTEGSLLDGLYWKMQPSNQTEADNRSFIFYENLLLGVPRIRQLRVRNGSCSIPQDLRDEIKECYDVYSVSSEDRAPFGPRNGTAWIYTSEKDLNGSSHWGIIATYSGAGYYLDLSRTREETAAQVASLKKNVWLDRGTRATFIDFSVYNANINLFCVVRLLVEFPATGGVIPSWQFQPLKLIRYVTTFDFFLAACEIIFCFFIFYYVVEEILEIRIHKLHYFRSFWNCLDVVIVVLSVVAIGINIYRTSNVEVLLQFLEDQNTFPNFEHLAYWQIQFNNIAAVTVFFVWIKLFKFINFNRTMSQLSTTMSRCAKDLFGFAIMFFIIFLAYAQLAYLVFGTQVDDFSTFQECIFTQFRIILGDINFAEIEEANRVLGPIYFTTFVFFMFFILLNMFLAIINDTYSEVKSDLAQQKAEMELSDLIRKGYHKALVKLKLKKNTVDDISESLRQGGGKLNFDELRQDLKGKGHTDAEIEAIFTKYDQDGDQELTEHEHQQMRDDLEKEREDLDLDHSSLPRPMSSRSFPRSLDDSEEDDDEDSGHSSRRRGSISSGVSYEEFQVLVRRVDRMEHSIGSIVSKIDAVIVKLEIMERAKLKRREVLGRLLDGVAEDERLGRDSEIHREQMERLVREELERWESDDAASQISHGLGTPVGLNGQPRPRSSRPSSSQSTEGMEGAGGNGSSNVHV
SILAC enrichment ratio, mutant over wild-type GFP-VPS26A [3]: 17.2
